Experimental data published in the RNAGym collection of RNA variant scans (doi:10.1093/nar/gkz1192).

B1: CPEB3 Ribozyme (parent)
chain: UAACAGGGGGCCACAGCAGAAGCGUUCACGUCGCAGCCCCUGUCAGAUUCUGGUGAAUCUGCGAAUUCUGCUGUAUAUCUC

Variants of: B1
Assay: self-cleavage, relative activity (ratio to wild type); higher = more cleavage; in vitro, sequencing
Method in brief: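 Libraries of CPEB3 self-cleaving ribozyme mutants came from rounds of error-prone PCR and carried barcodes, which DNA sequencing matched to variants. In vitro transcription used T7 RNA polymerase at 37°C for 5 hours, with a further 15 min in DNase I before EDTA stopped the reaction; the ribozymes cleaved during both steps. The RNA was reverse transcribed with template switching and sequenced on Illumina. Relative activity is the cleaved/total read fraction of a variant divided by that of the unmutated ribozyme, averaged over three batches with at least 5 reads.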

Variant | self-cleavage
A3U G19U | 0.4
A5G A56U | 0.43
A5G A56G | 0.39
A3U C59U | 0.66
C4U A65G | 0.43
A3U C79U | 1.21
C4U C12U | 1.21
A5C C34U | 0.47
A5C C34G | 0.41
A5C U49C | 0.54
A3U G22A | 0.45
A3U G22U | 0.32
A5G A77U | 0.78
A5G A77G | 0.71
A5C G46U | 0.06
A5C A47U | 0.53
A5C A47G | 0.78
A3U G61C | 0.5
A3U G61A | 1.01
A5C G63U | 0.91
A5C G63C | 0.95
A5C C32G | 0
C4U G55U | 1.28
C4U U54C | 1.15

Variant | self-cleavage
C4U U54A | 1.18
C4G A21G | 1.14
C4U A45U | 0.47
C4U A45G | 1.25
C4U G7C | 0.13
C4A C59A | 0.33
A5G A21G | 0.43
A5G A21C | 0.39
A5G A21U | 0.33
C4U U49C | 0.69
C4A U41A | 0.41
A5C C50A | 0.8
C4U C40U | 0.86
A3U C81G | 1.21
C4A C44U | 0.33
C4U U26A | 1.13
C4U U26C | 0.88
C4U U76C | 1.16
C4A U58C | 0.76
C4A U58A | 0.67
C4A A21G | 0.92
C4G A57G | 0.98
C4U G9U | 0.17
C4A G33U | 0.12

Variant | self-cleavage
C4A C62U | 0.23
A5C U78C | 0.89
A5C U66C | 0.54
A3U U67C | 0.3
A3U U67A | 0.75
C4A A45U | 1.16
A3U U78G | 1.2
A3U U78C | 0.9
A5C G30U | 0.24
A5C G30A | 0.19
A5C A75G | 0.69
A3U G46A | 0.54
C4U G10A | 0.63
C4U G10U | 0.25
C4U A75G | 1.15
A3U U60C | 0.59
A3U U60A | 0.19
C4U A21G | 0.89
C4A G22C | 0.25
A5G A28G | 0.48
A5G A28U | 0.55
A5G A28C | 0.61
A3U G73C | 1.25
A5G A18U | 0.33

Variant | self-cleavage
A5G A18C | 0.48
A5G A18G | 0.5
A5G A15C | 0.83
A5G A15G | 0.6
A5G A15U | 0.61
A5C G8A | 0.46
A5C G8C | 0.36
C4A U60A | 0.89
C4A C79G | 1.25
A5C G55U | 1.13
A3U U80A | 1.23
A3U U80C | 0.85
C4A U25C | 0.52
A5C A56G | 0.75
A3U G42U | 0.16
A5C U51C | 0.6
A5C U43A | 1.13
A5C U43C | 0.57
A5C U43G | 0.38
A3U G52A | 1.1
A5C U25C | 0.15
A3U C68G | 0.44
A3U C68A | 0.44
A3U U76G | 1.13

Variant | self-cleavage
A3U G16A | 0.43
A3U U41A | 0.31
A3U U41C | 1.05
C4G G55U | 1.12
A3U U25A | 0.29
A3U U25C | 0.34
A5C G6U | 0.32
A3U G6A | 0.62
A3U G6U | 0.59
A5C U80A | 1.19
A5C U80C | 1.05
A5C A57C | 0.52
A5C A57G | 0.9
A3U U48C | 0.63
A3U U48A | 0.56
A3U G9A | 0.58
A3U G9C | 0.25
A5C U58C | 0.58
A5C U58A | 0.49
C4U U74C | 1.18
A5G A64G | 0.58
A5G A64U | 0.35
C4U U80C | 1.19
A5C A28U | 1.12

Variant | self-cleavage
A5C A28G | 0.63
C4A G30A | 0.39
A5C U72A | 0.98
A5C U72C | 1.09
C4A U66C | 0.24
A5C G9U | 0.52
A5C G9A | 0.41
C4U A28U | 1.08
C4U A28G | 1.03
A5G A20U | 0.37
A5G A20G | 0.54
A5G A20C | 0.58
C4U U67A | 0.76
C4U U67C | 0.42
C4A U78C | 0.74
C4U A56G | 1.06
C4G U60C | 0.68
C4U C38A | 0.54
A5C U60G | 0.67
A5C U60A | 0.64
A5C U60C | 0.64
A5G A75U | 0.83
A5G A75C | 0.57
A5G A75G | 0.49

Variant | self-cleavage
A3U G8A | 0.2
C4G U66A | 0.79
C4U U48C | 0.99
A5C C17A | 0.19
C4G A13G | 1.08
C4G A13C | 1.17
C4G A77G | 1.19
A5C U74C | 1.19
A5C C68G | 0.23
C4A A47G | 1.12
C4A G10A | 0.59
A5C C23G | 0.18
A5C G36A | 0.31
C4U C23G | 0.53
C4U U25G | 0.45
C4U U25A | 0.31
C4U U25C | 0.2
C4A U72C | 1.22
C4A U72A | 0.42
A5C A65G | 0.44
A3U U74A | 1.26
C4A U69A | 0.68
A5C U54C | 1.09
A5C U54G | 0.81

Variant | self-cleavage
C4A U67A | 1
C4A U67C | 0.44
A5C U48C | 0.94
A3U G63U | 1.19
A3U G63A | 1.03
C4U U43C | 0.93
C4U U51C | 1.16
C4U U51A | 0.98
A5C A21G | 0.69
A5C A21U | 0.36
C4U U66C | 0.59
C4U U60C | 0.75
C4U U60G | 0.86
C4U U60A | 0.95
C4U G33A | 0.37
C4U A13C | 1.21
C4U C27U | 0.56
C4G U51A | 1.15
C4G U51C | 1.12
C4G U41C | 1.1
C4G U41A | 0.5
C4U A20U | 0.42
C4U A20G | 0.81
C4U A20C | 0.21

Variant | self-cleavage
A3U U26C | 0.64
A3U U26A | 1.03
A3U U26G | 0.23
A5C U67G | 0.27
A5C U67C | 0.22
A5C U67A | 0.48
A5C A35G | 1.18
A5C A35U | 0.54
A5G A45U | 0.36
A5G A45G | 0.63
A5G A45C | 0.42
C4G U69C | 0.95
C4G U72A | 1.13
C4U G8U | 0.38
C4U G8A | 0.28
C4U A15G | 1.17
C4U A15U | 0.86
C4A U31A | 0.88
C4A G6A | 0.43
C4U A35U | 0.81
C4U A35G | 1.29
A3U U58C | 0.54
A3U U58A | 0.39
A3U G33U | 0.42

Variant | self-cleavage
A3U G33A | 0.16
A3U U69A | 0.54
A3U U69C | 0.69
A5G A57U | 1.04
A5G A57C | 0.28
A5G A57G | 0.64
A3U G70A | 0.63
A3U G70U | 0.19
C4U U69C | 0.86
C4U U58C | 1.06
A5C A15C | 0.81
A5C A15U | 0.99
A5C A15G | 0.96
A5C C62U | 0.13
C4U | 1.17
C4G | 1.1
C4A | 1.22
C4A G16U | 0.62
A3U U31C | 1.01
A3U U31G | 1.01
A3U U31A | 0.55
A5C A13G | 1.07
A5C A13U | 1.22
A5C C37U | 0.76

Variant | self-cleavage
A5C C37G | 0.87
C4U G30A | 0.22
A3U U51A | 1.02
A3U U51G | 1.08
A3U U51C | 1.15
C4U A64U | 0.7
A3U U66C | 0.55
C4A U76A | 1.2
A5C A45G | 0.7
A5C A45U | 0.59
C4A A20G | 1.11
C4U U78C | 1.14
C4U U78A | 0.9
A5C U26C | 0.58
A5C U26A | 1.04
C4G G8C | 0.66
C4A G8A | 0.47
C4U A18U | 0.73
A5C U31A | 0.75
A5C U31C | 0.8
C4U C17U | 1.05
C4A U74C | 1.22
C4U U72C | 1.12
C4U U72A | 1.01

Variant | self-cleavage
C4G G36U | 0.28
A3U U54A | 1.19
A3U U54C | 1.04
A3U U43G | 0.34
A3U U43C | 0.77
A3U U43A | 0.77
C4U C37G | 0.9
C4U C37U | 0.91
A3U G36A | 0.32
C4G U31C | 1.17
A5C C29U | 0.42
A5C G10A | 0.09
A5C U69C | 0.59
A5C U69G | 0.67
A5C U69A | 0.67
C4A U51C | 1.14
C4A A18G | 1.04
C4A A18U | 0.45
C4A G9A | 0.64
C4U U31C | 1.11
C4U U31A | 0.82
C4U A5G | 0.84
A3U U49C | 0.51
A3U U49A | 0.47

Variant | self-cleavage
C4A U26C | 1.21
C4G U49A | 0.65
C4U C50A | 1.17
C4U C29U | 0.72
C4G U67C | 0.29
A3U U72A | 1
A3U U72G | 1.09
A3U U72C | 1.12
C4U A47G | 1.15
A3U C71U | 0.83
A5G A65U | 0.19
A5G A65C | 0.25
A5G A65G | 0.39
C4A U80A | 1.06
C4A U80C | 1.11
A5C C71U | 0.57
C4U A57G | 1.05
C4U U41A | 0.48
C4U U41C | 1.07
C4U G63U | 1.23
A5G A13G | 0.56
A5G A13C | 0.76
A5G A13U | 0.98
A5C A64U | 1

Variant | self-cleavage
A5C A64G | 1
C4G U26A | 1.19
C4G U26C | 0.96
A5C A18G | 0.53
A5C U41G | 0.35
A5C U41A | 0.28
A5G A35U | 0.36
A5G A35C | 0.85
A5G A35G | 1.18
A3U G10U | 0.19
A3U G10A | 0.1
A5G A47G | 0.65
A5G A47C | 0.59
A5G A47U | 0.34
C4U G52A | 1.26
A5C | 0.98
A5G | 0.74
C4U G42A | 0.32
A3U G7A | 0.47
A3U G7C | 0.35
A3U G7U | 0.13
A5G C11G | 0.5
